The data set addresses Kunitz domain inhibitor KD1 derived from hepatocyte growth factor activator inhibitor-1B (HAI-1B) (UniProt O43278).

soluble form of HEPSIN comprising the entire extracellular domain (human HEPSIN Arg45-Leu417, His-tagged), sequence (chain, as listed by the source): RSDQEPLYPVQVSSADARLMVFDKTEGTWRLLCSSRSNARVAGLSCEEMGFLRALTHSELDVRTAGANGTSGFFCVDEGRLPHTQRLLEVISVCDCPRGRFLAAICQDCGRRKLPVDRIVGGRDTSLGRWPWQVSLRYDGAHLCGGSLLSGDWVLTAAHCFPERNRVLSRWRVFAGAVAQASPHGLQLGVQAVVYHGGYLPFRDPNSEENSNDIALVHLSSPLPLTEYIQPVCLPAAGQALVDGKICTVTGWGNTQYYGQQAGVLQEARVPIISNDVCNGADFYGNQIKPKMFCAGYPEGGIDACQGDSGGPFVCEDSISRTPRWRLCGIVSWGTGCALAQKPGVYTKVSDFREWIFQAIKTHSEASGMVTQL
Kunitz domain inhibitor KD1 derived from hepatocyte growth factor activator inhibitor-1B (HAI-1B), sequence (O43278 246-303): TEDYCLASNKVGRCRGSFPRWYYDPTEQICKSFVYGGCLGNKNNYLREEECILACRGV

As for “soluble form of HEPSIN comprising the entire extracellular domain (human HEPSIN Arg45-Leu417, His-tagged)”, the “HEPSIN activity in a chromogenic substrate assay with the para-nitroanilide substrate S2366” value is reported as “completely inhibited HEPSIN activity at a concentration of 50 nM”.

Values taken from patent US20100021474.
